Measured values as given in patent US20140178394A1 (INSERM INSTITUT NATIONAL DE LA SANTE ET DE LA RECHERCHE …, published 2014).

B1: antigen peptide N4-145 (VLVPPLPSL) (peptide)
peptide: VLVPPLPSL
notes: Synthetic nonapeptide of human nectin4; the range counts on nectin4
B2: Nectin4 peptide 357 (AALLFCLLV) (peptide)
peptide: AALLFCLLV
notes: as for B1
B3: Nectin4 peptide 347 (SASVVVVGV) (peptide)
peptide: SASVVVVGV
notes: as for B1
B4: Nectin4 peptide 239 (ILHVSFLAE) (peptide)
peptide: ILHVSFLAE
notes: as for B1
B5: Nectin4 peptide 244 (FLAEASVRG) (peptide)
peptide: FLAEASVRG
notes: as for B1
B6: Nectin4 peptide 255 (DQNLWHIGR) (peptide)
peptide: DQNLWHIGR
notes: as for B1
B7: Nectin4 peptide 21 (LLASFTGRC) (peptide)
peptide: LLASFTGRC
notes: Synthetic nonapeptide of human nectin4; the range counts on nectin4; also called Pep N° 21
B8: Nectin4 peptide 266 (AMLKCLSEG) (peptide)
peptide: AMLKCLSEG
notes: as for B1
B9: Nectin4 peptide 355 (VIAALLFCL) (peptide)
peptide: VIAALLFCL
notes: as for B1
B10: Nectin4 peptide 443 (RSYSTLTTV) (peptide)
peptide: RSYSTLTTV
notes: as for B1
B11: Nectin4 peptide 351 (VVVGVIAAL) (peptide)
peptide: VVVGVIAAL
notes: as for B1
B12: Nectin4 peptide 359 (LLFCLLVVV) (peptide)
peptide: LLFCLLVVV
notes: as for B1
B13: Nectin4 peptide 203 (AVTSEFHLV) (peptide)
peptide: AVTSEFHLV
notes: as for B1
B14: Nectin4 peptide 238 (HILHVSFLA) (peptide)
peptide: HILHVSFLA
notes: Synthetic nonapeptide of human nectin4; the number is the start position in nectin4 (the range counts on nectin4)
B15: Nectin4 peptide 19 (LLLLASFTG) (peptide)
peptide: LLLLASFTG
notes: as for B1
B16: Nectin4 peptide 80 (ALLHSKYGL) (peptide)
peptide: ALLHSKYGL
notes: Synthetic nonapeptide of human nectin4; the range counts on nectin4; also called Pep N° 80
B17: Nectin4 peptide 345 (LVSASVVVV) (peptide)
peptide: LVSASVVVV
notes: as for B1
B18: Nectin4 peptide 358 (ALLFCLLVV) (peptide)
peptide: ALLFCLLVV
notes: as for B1
B19: Nectin4 peptide 137 (FQARLRLRV) (peptide)
peptide: FQARLRLRV
notes: as for B1
B20: Nectin4 peptide 354 (GVIAALLFC) (peptide)
peptide: GVIAALLFC
notes: as for B1
B21: Nectin4 peptide 215 (SMNGQPLTC) (peptide)
peptide: SMNGQPLTC
notes: as for B1
B22: Nectin4 peptide 35 (GTSDVVTVV) (peptide)
peptide: GTSDVVTVV
notes: as for B1
B23: reference peptide 519 (Tyrosinase), YMDGTMSQV (peptide)
peptide: YMDGTMSQV
notes: Control peptide from the literature, tested here; also called tyrosinase peptide
B24: reference peptide 515 (MAGE-A3), KVAELVHFL (peptide)
peptide: KVAELVHFL
notes: Control peptide from the literature, tested here
B25: reference peptide 503 (PR3; Proteinase3), NLSASVATV (peptide)
peptide: NLSASVATV
notes: as for B24
B26: reference peptide 517 (MAGE-A10), GLYDGMEHL (peptide)
peptide: GLYDGMEHL
notes: as for B24
B27: reference peptide 520 (GnTV), VLPDVFIRC (peptide)
peptide: VLPDVFIRC
notes: Control peptide from the literature, tested here; also called GnTV peptide

molecular target: T1, HLA-A*0201 HLA class I MHC monomer (iTopia Epitope Discovery System, coated on plate) (human); experiment: iTopia EDS peptide binding assay on plate-coated MHC monomer; % of positive control peptide
T1 construct: Placeholder peptide stripped; also called HLA-A2; MHC class I monomer

Binder | % Binding [%]
B1 | 67
B2 | 56
B3 | 64
B4 | 61
B5 | 78
B6 | 62
B7 | 91
B8 | 74
B9 | 59
B10 | 68
B11 | 58
B12 | 67
B13 | 64
B14 | 87
B15 | 75
B16 | 87
B17 | 51
B18 | 53
B19 | 69
B20 | 61
B21 | 81
B22 | 63

molecular target: T1, HLA-A*0201 HLA class I MHC monomer …; experiment: iTopia EDS off-rate assay
Description: (§1) This assay evaluates the dissociation rate of “binder” peptides as a function of time.
The relative stability of each complex was evaluated for a period of 8 h as described in material and methods. Off-rate stability was determined by measuring the dissociation time of the complex (t1/2).

Binder | t1/2 [h]
B1 | > 6
B7 | > 6
B16 | > 6

molecular target: T1, HLA-A*0201 HLA class I MHC monomer …; experiment: iTopia EDS affinity assay; peptide titration (ED50)

Binder | EC50 [nM]
B1 | ~100
B7 | ~100
B16 | ~100

molecular target: T2, HLA-A*0201 on the CEM.T2 cell line (T2) (human); experiment: T2 cell dissociation assay with Brefeldin A, flow cytometry
T2 construct: whole, on cells
Description: (§2) After 3 washes, cells were fixed in PBS supplemented with 2% paraformaldehyde and analyzed by FACS (FACScan, BD Bioscience). The percentage of peptide binding was calculated as follows:
(§3) After 3 washes, T2 cells were incubated for 3 h in serum-free RPMI at 37° C. Binding was then measured by FACS and after 4 h incubation. Percentage of Residual Binding (% RB) was calculated as follows:

Binder | CEM.T2 % Residual Binding [%]
B1 | 54
B2 | 18
B3 | 0
B4 | 0
B5 | 0
B6 | 0
B7 | 86
B8 | 39
B9 | 24
B10 | 0
B11 | 50
B12 | 23
B13 | 0
B14 | 66
B15 | 0
B16 | 86
B17 | 0
B18 | 26
B19 | 72
B20 | 0
B21 | 0
B22 | 0

molecular target: T2, HLA-A*0201 on the CEM.T2 cell line (T2); experiment: T2 cell HLA-A*0201 stabilization, 100 µM peptide, flow cytometry; % of HBV positive control
Description: as §2

Binder | CEM.T2 % Binding [%]
B1 | 76
B2 | 15
B3 | 40
B4 | 10
B5 | 12
B6 | 6
B7 | 44
B8 | 31
B9 | 18
B10 | 37
B11 | 82
B12 | 7
B13 | 48
B14 | 37
B15 | 17
B16 | 53
B17 | 11
B18 | 26
B19 | 30
B20 | 10
B21 | 21
B22 | 60

molecular target: T1, HLA-A*0201 HLA class I MHC monomer …; experiment: iTopia EDS off-rate assay at 37 C; time to 50% complex dissociation
Excerpt: (§4) Microtiter 96 well plates containing HLA class I MHC monomer loaded with the human β2-microglobulin and a “placeholder” peptide were used to evaluate peptide binding, affinity, and off-rate.
as §1

Binder | T½ Value [h]
B1 | 7.4
B2 | 3.8
B3 | 3.7
B4 | 2.3
B5 | 2.8
B6 | 5.4
B7 | 6
B8 | 6.8
B9 | 5.2
B10 | 2.4
B11 | 3.4
B12 | 7.4
B13 | 3.5
B14 | 6.7
B15 | 2.1
B16 | 7.8
B17 | 2.3
B18 | 6.1
B19 | 7.3
B20 | 6.2
B21 | 6.8
B22 | 2.9

molecular target: T1, HLA-A*0201 HLA class I MHC monomer …; experiment: iTopia EDS affinity assay; peptide titration, printed as Affinity (ED50)

Binder | EC50 [nM]
B1 | 500
B2 | 100
B3 | 200
B4 | 200
B5 | 700
B6 | 500
B7 | 600
B8 | 700
B9 | 30
B10 | 300
B11 | 30
B12 | 500
B13 | 400
B14 | 60
B15 | 60
B16 | 1000
B17 | 60
B18 | 200
B20 | 90
B21 | 700
B22 | 300

molecular target: T1, HLA-A*0201 HLA class I MHC monomer …; experiment: iTopia EDS multiparametric score (binding, off-rate, affinity)
Excerpt: as §4
The iTopia system software was used to include, binding, off-rate (T1/2 value) and affinity (ED50 value) data collected for each peptide, in a multiparametric score called iScore.

Binder | iScore
B1 | 0.783
B2 | 0.619
B3 | 0.708
B4 | 0.51
B5 | 0.533
B6 | 0.539
B7 | 0.727
B8 | 0.667
B9 | 0.888
B10 | 0.521
B11 | 0.784
B12 | 0.674
B13 | 0.533
B14 | 1.43
B15 | 0.659
B16 | 0.815
B17 | 0.626
B18 | 0.71
B19 | 0.66
B20 | 0.845
B21 | 0.689
B22 | 0.539

molecular target: T2, HLA-A*0201 on the CEM.T2 cell line (T2); experiment: T2 cell HLA-A*0201 stabilization and dissociation, flow cytometry
Description: as §2, §3

Binder | binding score
B1 | > 50 % of positive control
B11 | > 50 % of positive control
B16 | > 50 % of positive control

molecular target: T1, HLA-A*0201 HLA class I MHC monomer …; experiment: overall rank from iTopia EDS and CEM T2 assays on HLA-A*0201

Binder | RANK F-Score
B1 | 6
B23 | 3
B7 | 11
B11 | 5
B14 | 7
B24 | 10
B16 | 4
B25 | 9
B26 | 8
B27 | 1
